Patent US5432264A (priority 1987, dated 1995)
Read-outs that look alike come from different tables or passages of the source. Peptide text beside a SMILES is read from it. * marks the point of attachment. Cbz = O=C(OCc1ccccc1)*; CHN2 = [N-]=[N+]=C*

Key:
[1] = test system: herpes simplex virus type 1 (HSV); assay type: cell-based
[2] = test system: poliovirus type 1; assay type: cell-based; conditions: 24 μg per disc, green monkey kidney cells infected with poliovirus type 1
[3] = test system: HSV type 1 (F strain); assay type: cell-based; conditions: for Virus Yield: 48 hrs at 37° C.
[4] = test system: poliovirus (Mahoney strain); assay type: cell-based, poliovirus type 1; conditions: for effect on poliovirus replication (in words): inhibitor added to cultivation medium; for Virus Yield: poliovirus type 1, multiplicity 1, 48 hrs at 37° C.
[5] = molecular target: dipeptidyl peptidases I (F.C 3.4.14.1); assay: Equilibrium constant for dissociation of inhibitor-enzyme complex, dipeptidyl peptidase I; assay type: binding
Description: (§1) Biological activity of 3-des-OH-cystatin C was determined through titration against concentration determined papain. The strength of binding 3-des-OH-cystatin on the cystein proteinases papain (EC 3.4.22.2), cathepsin B (EC 3.4.22.1) and dipeptidyl peptidases I (F.C 3.4.14.1) was determined. The equilibrium constant for dissociation of 3-des-OH-cystatinC enzyme complex (0.005 nM, 0.50 nM and 3.1 nM) was within the experimental error limit identical with the equilibrium constant for human cystatin C enzyme complex (<0.005 nM, 0.27 nM and 6.3 nM For papan, cathepsin B and dipeptidyl peptidases I, respectively).

[6] = test system: papain; assay: Papain-inhibiting capacity by titration of active papain, substrate Z-Phe-Arg-NHMec; assay type: biochemical; conditions: papain-inhibiting capacity relative to molar cystatin C concentration; range over several preparations
Description: The papain-inhibiting capacity of recombinant 3-des-OH-cystatin C was compared with the corresponding activity of human cystatin C.
The human cystatin C was isolated from urine of patients with mixed glomerular-tubular proteinuria by ultrafiltration, ion-exchange chromatography and gel filtration as described in literature (ref. 2,3) and lyophilized. A total of ten different preparations of human cystatin C and 3-des-OH-cystatin C were tested for their cystein proteinase inhibitory capacity. The cystatin C and 3-des-OH-cystatin C preparations derived from human urine and recombinant technique, respectively, were individually dissolved in 0.15 mol/l ammonium bicarbonate. Cystatin C concentrations of the resulting solutions were determined by phys-ico-chemical and immuno-diffusion and quantitation of amino acids released at hydrolysis in 6 mol/l HCl). The cysteine proteinase inhibiting capacities of these solutions were determined by adding them to a solution of isolated papain (cf. ref. 4), a plant cysteine proteinase widely used as a model for cysteine proteinases in general, and then determining the residual proteolytic activity of the resulting mixtures.
The cysteine proteinase activities of the papain solution and the cystatin C-papain mixtures were determined using the fluorogenic substrate Z-Phe-Arg-NHMec (ref. 5). […]

[7] = molecular target: cathepsin B (EC 3.4.22.1); assay: Equilibrium constant for dissociation of inhibitor-enzyme complex, cathepsin B; assay type: binding
Description: as §1

Molecule	inhibition of plaque formation around disc [1]	inhibition of plaque formation around disc [2]	inhibition of HSV replication [3]	Virus Yield [3]	effect on poliovirus replication (in words) [4]	Virus Yield ([4]; 0.4 mM Z-LVG-CHN2 in 1% DMSO)	Kd [5]	molar inhibitory capacity [6]	effect on HSV replication (in words) [3]	Kd [7]	Virus Yield ([4]; 0.10 mM cystatin C in MEM)
CC(C)C[C@H](NC(=O)OCc1ccccc1)C(=O)N[C@H](C(=O)NCC(=O)C=[N+]=[N-])C(C)C [Z-LVG-CHN2, N-benzyloxycarbonyl-leucyl-valyl-glycine diazomethyl ketone, reference compound] (Cbz-Leu-Val-Gly-CHN2)	marked inhibition zones	no inhibition of plaque formation	> 99.9	1.4 × 10^3	hardly significant	4.8 × 10^7 pfu/ml					
3-des-OH-cystatin C: Recombinant 120 amino acid human cystatin C with non-hydroxylated Pro at position 3, expressed in E. coli (protein, UniProt P01034 27-146, looked up, non-hydroxylated Pro3, Recombinant 120 amino acid human cystatin C with non-hydroxylated Pro at position 3, expressed in E. coli) Cystatin-C: SSPGKPPRLVGGPMDASVEEEGVRRALDFAVGEYNKASNDMYHSRALQVVRARKQIVAGVNYFLDVELGRTTCTKTQPNLDNCPFHDQPHLKRKAFCSFQIYAVPWQGTMTLSKSTCQDA				2.4 × 10^3	no influence on the replication of poliovirus		3.1 nM	83-98%	potent inhibitor of HSV replication	0.5 nM	1.1 × 10^8 pfu/ml
human cystatin C: Native cystatin C isolated from human urine; mixture of 3-OH-Pro form and 3-des-OH form (protein, UniProt P01034 27-146, looked up) Cystatin-C: SSPGKPPRLVGGPMDASVEEEGVRRALDFAVGEYNKASNDMYHSRALQVVRARKQIVAGVNYFLDVELGRTTCTKTQPNLDNCPFHDQPHLKRKAFCSFQIYAVPWQGTMTLSKSTCQDA							6.3 nM	5-55%		0.27 nM	
